Experiments:
Conditions in all cases: EMSA: 20 nM probe, 10 mM Tris-HCl pH 7.5, 50 mM KCl, 10 mM MgCl2, 5% glycerol, 20 min at 4 C, 5% native PAGE in TGE pH 8.3; footprinting: same binding system …
[1] = system: T1, CopR2 (Pseudomonas putida KT2440), ORF:6041cc23; assay: EMSA
T1 sequence: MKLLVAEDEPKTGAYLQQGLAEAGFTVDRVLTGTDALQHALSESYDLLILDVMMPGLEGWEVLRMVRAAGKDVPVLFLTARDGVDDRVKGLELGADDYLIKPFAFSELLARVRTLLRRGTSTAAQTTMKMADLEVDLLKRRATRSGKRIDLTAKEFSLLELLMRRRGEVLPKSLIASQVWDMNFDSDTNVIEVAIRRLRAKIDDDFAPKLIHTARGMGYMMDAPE

[2] = system: T2, CopR1 (Pseudomonas putida KT2440), ORF:c26c307e; assay: EMSA
T2 sequence: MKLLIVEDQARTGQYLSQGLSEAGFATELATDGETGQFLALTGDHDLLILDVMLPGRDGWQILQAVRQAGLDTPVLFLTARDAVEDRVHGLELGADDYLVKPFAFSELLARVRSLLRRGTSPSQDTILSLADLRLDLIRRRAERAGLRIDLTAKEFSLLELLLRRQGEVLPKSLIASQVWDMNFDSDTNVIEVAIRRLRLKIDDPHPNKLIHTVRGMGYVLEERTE

[3] = system: T1, CopR2 (Pseudomonas putida KT2440), ORF:6041cc23; assay: DNase I footprinting
[4] = system: T2, CopR1 (Pseudomonas putida KT2440), ORF:c26c307e; assay: DNase I footprinting

Measured: binding

CTTTGACAAACGTACGGCGGGAGGGGTTGCGCAACATGGCGAGGCCTCATGCGGAATAGCCACGATGTTCGCTGCCGCCTGCTGTCAGGTAGCTGAGGTGCACATTACAGTGTTGTCAGCTTGCTGCTTCGTCGATGCGCAGGTCGCGCATCAGCAGGCCGTAGTCGAGGGCAACCTGTTCCGGGATCGGCAGATACACCACATGGCCATCGCCCGGTGCGACCTCGATGGCGTGCTGCTACTGGCCGTCGTTTTACA (double strand) [copA1 (copAB1) promoter probe]
binds: all assays above

TCGGTTCATCCTCAGCTACGAGTAGTTTCATGTGCTCAGCTTCCAAAGGTGTACACATCCAGTGTGCAGCAAAAAAAGGAGCTAACCAGAAGCTGACGTAAAAGTAATGTTGGTATCAGCCAGCTGTCAGGGCCTGCCGTCTACGGTCATTGAAGACGGGCATTGCAGTCACGCCTGCCGTTATCGGTAGCAATGGTTTCAACCCCCTGATGGAGAGAGTCCCATGAAATCGATCAGACTTTTGCTTGTGGCTACATCGATGCTGCTGACTGGCCGTCGTTTTACA (double strand) [copR2 (copRS2) promoter probe]
binds: all assays above

TGTAAAACGACGGCCAGTAGCCAGAGCCATAAACACGGGCAGCATGAGAACTGCTGATCCGAGCTTACAGAAATGTAATCACTCGGGAATCTTTTATGTGGCAGTTTCAAATCGCTTTCTCCCACTGTGACTTGCGCTTTCGAGCAAGTCCCTAAGACTTGTGGGATCCCCAAGGAAGCCGGGCCTGCGATCGAGCGGCCCGGATATCAGCGAATTATCTGACTGACTGGACACTACGGCATGCAAAGCAAAACCACGAGACGATCTTTCGTCAAAGGCCTGGC (double strand) [copA2 (copAB2) promoter probe]
binds: all assays above

TGTAAAACGACGGCCAGTGGGTGGCGGTAATGAACAGGTGTTTCATGATGACTCCGGGAATACACAGCAGGATGAGGCCACATTAGCCGGGGGCGACTGGCAGCTACCTGACAGGCACATTACAACTTTGTCAGCTTGGGCGAGCGGGCACATCGTCACGTATCATTTCAGCCATCCCATTGCCCCTGTGCTAGCGGTAAGGCGGCGCCATAGGCTACGCACAATCTTTCAGAATATGGACAGCGCATGAAACTGCTGATCGTCGAAGACCAGGC (double strand) [copR1 (copRS1) promoter probe]
binds: all assays above

— PMC12428095
